Source: IntAct's records for PubMed 16374512

B1: Retinoblastoma-associated protein (Homo sapiens), P06400 (parent)
chain: MPPKTPRKTAATAAAAAAEPPAPPPPPPPEEDPEQDSGPEDLPLVRLEFEETEEPDFTALCQKLKIPDHVRERAWLTWEKVSSVDGVLGGYIQKKKELWGICIFIAAVDLDEMSFTFTELQKNIEISVHKFFNLLKEIDTSTKVDNAMSRLLKKYDVLFALFSKLERTCELIYLTQPSSSISTEINSALVLKVSWITFLLAKGEVLQMEDDLVISFQLMLCVLDYFIKLSPPMLLKEPYKTAVIPINGSPRTPRRGQNRSARIAKQLENDTRIIEVLCKEHECNIDEVKNVYFKNFIPFMNSLGLVTSNGLPEVENLSKRYEEIYLKNKDLDARLFLDHDKTLQTDSIDSFETQRTPRKSNLDEEVNVIPPHTPVRTVMNTIQQLMMILNSASDQPSENLISYFNNCTVNPKESILKRVKDIGYIFKEKFAKAVGQGCVEIGSQRYKLGVRLYYRVMESMLKSEEERLSIQNFSKLLNDNIFHMSLLACALEVVMATYSRSTSQNLDSGTDLSFPWILNVLNLKAFDFYKVIESFIKAEGNLTREMIKHLERCEHRIMESLAWLSDSPLFDLIKQSKDREGPTDHLESACPLNLPLQNNHTAADMYLSPVRSPKKKGSTTRVNSTANAETQATSAFQTQKPLKSTSLSLFYKKVYRLAYLRLNTLCERLLSEHPELEHIIWTLFQHTLQNEYELMRDRHLDQIMMCSMYGICKVKNIDLKFKIIVTAYKDLPHAVQETFKRVLIKEEEYDSIIVFYNSVFMQRLKTNILQYASTRPPTLSPIPHIPRSPYKFPSSPLRIPGGNIYISPLKSPYKISEGLPTPTKMTPRSRILVSIGESFGTSEKFQKINQMVCNSDRVLKRSAEGSNPPKPLKKLRFDIEGSDEADGSKHLPGESKFQQKLAEMTSTRTRMQKQKMNDSMDTSNKEEK

What was measured:
e2f1_human E2F1, Q01094 [1] = variants of: B1; settings: with e2f1_human E2F1, Q01094
e2f1_human E2F1, Q01094 [2] = variants of: B1; settings: with e2f1_human E2F1, Q01094; remark: listed apart in the source

e2f1_human E2F1, Q01094, sequence (Q01094 whole entry): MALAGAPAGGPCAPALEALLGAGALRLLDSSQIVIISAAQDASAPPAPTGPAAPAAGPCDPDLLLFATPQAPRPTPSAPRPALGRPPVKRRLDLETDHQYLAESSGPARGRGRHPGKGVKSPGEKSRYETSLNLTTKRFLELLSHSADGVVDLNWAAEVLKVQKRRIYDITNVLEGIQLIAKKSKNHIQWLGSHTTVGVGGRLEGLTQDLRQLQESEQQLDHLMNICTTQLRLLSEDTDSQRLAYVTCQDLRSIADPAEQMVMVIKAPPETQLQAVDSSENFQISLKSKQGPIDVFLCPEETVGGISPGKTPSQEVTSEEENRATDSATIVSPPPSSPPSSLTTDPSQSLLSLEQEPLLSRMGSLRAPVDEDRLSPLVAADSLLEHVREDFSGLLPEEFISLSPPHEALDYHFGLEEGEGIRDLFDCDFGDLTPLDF

Variant	effect of a mutation on the interaction (e2f1_human E2F1, Q01094 [1])	effect of a mutation on the interaction (e2f1_human E2F1, Q01094 [2])
K873Q	disrupting interaction	decreasing interaction
K874Q	disrupting interaction	decreasing interaction
